In article PMC5382271, “The conserved protein Seb1 drives transcription termination by binding RNA polymerase II and nascent RNA” (Nature Communications, 2017):
Substitutions are numbered along the chain they refer to. In names and notes the source's numbering stands. Where no end group is shown, it is not given here. FAM = 5'-fluorescein amidite

T1: Seb1-CID(1-152) (S. pombe, UniProt Q9UTE3 1-152)
T1 construct: The full-length parent construct in pET41a(+) has a C-terminal His8 tag; also called CID WT; source: E. coli Rosetta, purified (Ni-NTA, size-exclusion chromatography)
T1 sequence (looked up): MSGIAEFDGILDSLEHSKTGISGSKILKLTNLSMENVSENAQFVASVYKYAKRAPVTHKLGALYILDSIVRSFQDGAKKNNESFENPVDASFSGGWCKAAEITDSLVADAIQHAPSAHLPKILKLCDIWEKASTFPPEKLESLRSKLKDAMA

T2: SUMO-RRM R504E (Schizosaccharomyces pombe, UniProt Q9UTE3 388-540, R504E)
T2 sequence: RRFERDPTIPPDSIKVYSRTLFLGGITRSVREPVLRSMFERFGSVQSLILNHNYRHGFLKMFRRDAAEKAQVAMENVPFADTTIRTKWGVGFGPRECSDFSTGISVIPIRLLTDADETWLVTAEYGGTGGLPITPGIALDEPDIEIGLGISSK

T3: SUMO-RRM WT (Schizosaccharomyces pombe, UniProt Q9UTE3 388-540)
T3 sequence: T2 sequence with E117R

T4: Seb1-RRM388-540 (tag cleaved) (Schizosaccharomyces pombe, UniProt Q9UTE3 388-540)
T4 sequence: T2 sequence with E117R

T5: SUMO-RRM F487A (Schizosaccharomyces pombe, UniProt Q9UTE3 388-540, F487A)
T5 sequence: T2 sequence with F100A, E117R

T6: SUMO-RRM R450A (Schizosaccharomyces pombe, UniProt Q9UTE3 388-540, R450A)
T6 sequence: T2 sequence with R63A, E117R

T7: SUMO-RRM R428E (Schizosaccharomyces pombe, UniProt Q9UTE3 388-540, R428E)
T7 sequence: T2 sequence with R41E, E117R

T8: SUMO-RRM F449A (Schizosaccharomyces pombe, UniProt Q9UTE3 388-540, F449A)
T8 sequence: T2 sequence with F62A, E117R

T9: SUMO-RRM R392E (Schizosaccharomyces pombe, UniProt Q9UTE3 388-540, R392E)
T9 sequence: T2 sequence with R5E, E117R

T10: SUMO-RRM K402A (Schizosaccharomyces pombe, UniProt Q9UTE3 388-540, K402A)
T10 sequence: T2 sequence with K15A, E117R

T11: SUMO-RRM R472E (Schizosaccharomyces pombe, UniProt Q9UTE3 388-540, R472E)
T11 sequence: T2 sequence with R85E, E117R

T12: SUMO-RRM S492A (Schizosaccharomyces pombe, UniProt Q9UTE3 388-540, S492A)
T12 sequence: T2 sequence with S105A, E117R

T13: FAM-tagged two-repeat S2-phosphorylated CTD peptide
T13 chain: YSPTSPSYSPTSPS

T14: FAM-tagged two-repeat S5-phosphorylated CTD peptide
T14 chain: YSPTSPSYSPTSPS

T15: FAM-tagged two-repeat non-phosphorylated CTD peptide
T15 chain: YSPTSPSYSPTSPS

B1: Seb1-CID(1-152), Q9UTE3 K121E (protein)
chain: T1 sequence (looked up) with K121E
B2: Seb1-CID(1-152) (domain or fragment)
chain: T1 sequence (looked up)
B3: Seb1-CID(1-152), Q9UTE3 Y64K (protein)
chain: T1 sequence (looked up) with Y64K
B4: Seb1-CID(1-152), Q9UTE3 S22D; K25E; K124E (protein)
chain: T1 sequence (looked up) with S22D, K25E, K124E
B5: Seb1-CID(1-152), Q9UTE3 S22D; K25E (protein)
chain: T1 sequence (looked up) with S22D, K25E
B6: Seb1-CID(1-152), Q9UTE3 K124E (protein)
chain: T1 sequence (looked up) with K124E

Columns and labels:
Seb1-CID(1-152) = molecular target: T1, Seb1-CID(1-152); test: fluorescence polarisation; fluorescence anisotropy; Seb1-CID(1-152) titrated against 75 nM N-terminally FAM-tagged two-repeat CTD peptide; 25 mM HEPES pH 7.3, 200 mM NaCl, 1 mM EDTA; 25 °C; conditions: both partners purified
SUMO-RRM R504E = molecular target: T2, SUMO-RRM R504E; test: fluorescence anisotropy; 25 mM Tris-HCl pH 8.0, 100 mM NaCl, 2 mM MgCl2, 1 mM DTT, 16.7% glycerol, 0.1% IGEPAL, 0.1 mg/ml tRNA, 2.5% RNasin, 25 C, 40 nM FAM-RNA; conditions: protein: recombinant; tags: N-terminal His6-SUMO; single strand
SUMO-RRM WT = molecular target: T3, SUMO-RRM WT; test: as above; conditions: protein: recombinant; tags: N-terminal His6-SUMO; single strand
[1] = molecular target: T4, Seb1-RRM388-540 (tag cleaved); test: as above; conditions: protein: recombinant; tags: His6-SUMO removed with 3C protease; single strand
SUMO-RRM F487A = molecular target: T5, SUMO-RRM F487A; test: as above; conditions: protein: recombinant; tags: N-terminal His6-SUMO; single strand
SUMO-RRM R450A = molecular target: T6, SUMO-RRM R450A; test: as above; conditions: protein: recombinant; tags: N-terminal His6-SUMO; single strand
SUMO-RRM R428E = molecular target: T7, SUMO-RRM R428E; test: as above; conditions: protein: recombinant; tags: N-terminal His6-SUMO; single strand
SUMO-RRM F449A = molecular target: T8, SUMO-RRM F449A; test: as above; conditions: protein: recombinant; tags: N-terminal His6-SUMO; single strand
SUMO-RRM R392E = molecular target: T9, SUMO-RRM R392E; test: as above; conditions: protein: recombinant; tags: N-terminal His6-SUMO; single strand
SUMO-RRM K402A = molecular target: T10, SUMO-RRM K402A; test: as above; conditions: protein: recombinant; tags: N-terminal His6-SUMO; single strand
SUMO-RRM R472E = molecular target: T11, SUMO-RRM R472E; test: fluorescence anisotropy; text: completely abolishes RNA binding; fitted Kd error exceeds value; 25 mM Tris-HCl pH 8.0, 100 mM NaCl, 2 mM MgCl2, 1 mM DTT, 16.7% glycerol, 0.1% IGEPAL, 0.1 mg/ml tRNA, 2.5% RNasin, 25 C, 40 nM FAM-RNA; conditions: protein: recombinant; tags: N-terminal His6-SUMO; single strand
SUMO-RRM S492A = molecular target: T12, SUMO-RRM S492A; test: fluorescence anisotropy; text: mild effect on binding; 25 mM Tris-HCl pH 8.0, 100 mM NaCl, 2 mM MgCl2, 1 mM DTT, 16.7% glycerol, 0.1% IGEPAL, 0.1 mg/ml tRNA, 2.5% RNasin, 25 C, 40 nM FAM-RNA; conditions: protein: recombinant; tags: N-terminal His6-SUMO; single strand
[2] = molecular target: T13, FAM-tagged two-repeat S2-phosphorylated …; test: fluorescence anisotropy (FA); conditions: chain shown with the change; read at the highest titration point, Seb1-CID 500 µM; parent: est. 110; read off a plot
[3] = molecular target: T14, FAM-tagged two-repeat S5-phosphorylated …; test: fluorescence anisotropy (FA); conditions: chain shown with the change; read at the highest titration point, Seb1-CID 500 µM; parent: est. 77; read off a plot
[4] = molecular target: T15, FAM-tagged two-repeat …; test: fluorescence anisotropy (FA); conditions: chain shown with the change; read at the highest titration point, Seb1-CID 500 µM; parent: est. 44; read off a plot
[5] = molecular target: FAM-tagged two-repeat S2-phosphorylated CTD peptide; test: fluorescence polarisation; fluorescence anisotropy; Seb1-CID(1-152) titrated against 75 nM N-terminally FAM-tagged two-repeat CTD peptide; 25 mM HEPES pH 7.3, 200 mM NaCl, 1 mM EDTA; 25 °C
[6] = molecular target: FAM-tagged two-repeat S7-phosphorylated CTD peptide; test: as above
[7] = molecular target: FAM-tagged two-repeat S5-phosphorylated CTD peptide; test: as above

| Binder | response [2] | response [3] | response [4] | other results |
| --- | --- | --- | --- | --- |
| {FAM}-YSPTSPSYSPTSPS [FAM-tagged two-repeat non-phosphorylated CTD peptide] |  |  |  | Kd (Seb1-CID(1-152)): > 1000 µM |
| AUUAGUAAAA (ssRNA) [FAM-AUUAGUAAAA RNA] |  |  |  | Kd (SUMO-RRM R504E): 2.37 ± 0.17 µM; Kd (SUMO-RRM WT): 1.72 ± 0.06 µM; Kd [1]: 1.84 ± 0.63 µM; Kd (SUMO-RRM F487A): 25.6 ± 15.7 µM; Kd (SUMO-RRM R450A): 1.91 ± 0.71 µM; Kd (SUMO-RRM R428E): 2.87 ± 0.85 µM; Kd (SUMO-RRM F449A): 1.99 ± 0.19 µM; Kd (SUMO-RRM R392E): 3.33 ± 0.53 µM; Kd (SUMO-RRM K402A): 2.49 ± 0.33 µM; Kd (SUMO-RRM R472E): 17.8 ± 27.5 µM; Kd (SUMO-RRM S492A): 4.2 ± 0.56 µM |
| B1 | 47 | 47 | 34 |  |
| B2 |  |  |  | Kd [5]: 23.4 µM; Kd [6]: 242 µM; Kd [7]: 83.7 µM |
| B3 | 65 | 40 | 20 |  |
| B4 | 22 | 27 | 33 |  |
| B5 | 72 | 46 | 28 |  |
| B6 | 59 | 58 | 56 |  |
